# Test results reported in PMC3182943, “Monalysin, a Novel ß-Pore-Forming Toxin from the Drosophila Pathogen Pseudomonas entomophila, Contributes to Host Intestinal Damage and Lethality” (PLoS Pathogens, 2011).
# B1: recombinant pro-Monalysin (natural protein)
# chain: MTIKEELGQPQSHSIELDEVSKEAASTRAALTSNLSGRFDQYPTKKGDFAIDGYLLDYSSPKQGCWVDGITVYGDIYIGKQNWGTYTRPVFAYLQYVETISIPQNVTTTLSYQLTKGHTRSFETSVNAKYSVGANIDIVNVGSEISTGFTRSESWSTTQSFTDTTEMKGPGTFVIYQVVLVYAHNATSAGRQNANAFAYSKTQAVGSRVDLYYLSAITQRKRVIVPSSNAVTPLDWDTVQRNVLMENYNPGSNSGHFSFDWSAYNDPHRRY
# notes: Monalysin (pro-form, pore-forming toxin) of Pseudomonas entomophila L48, ORF PSEEN3174, residues 1 to 271; 30.2 kDa by MALDI-TOF, called the full-length pro-toxin; TRX-His6-TEV fusion from the vector pETG-20A, removed by His-TEV protease; The text mostly calls this protein 'Monalysin' or 'recombinant Monalysin'; upon storage at 4°C it turns partly into the shorter form; Oligomer of about 18 …
# Target: the molecule itself
# Assay: SEC-MALS; Silica Gel KW804 column (Shodex), 10 mM Tris, 150 mM NaCl, pH 7.5, 0.5 ml/min; MALS/UV/RI with quasi-elastic light scattering; protein loaded at 0.02 mM
protein,measurement,value
B1,stoichiometry N,~18 monomers
